How the values were obtained:
[1] = biological target: T1, rat contactin (clone F8; p140 of GH3 cells) (rat, UniProt Q63198 21-1001, GPI-anchored); experiment: cross-linking (DTSSP) on GH3 cells, protein A precipitation, SDS-PAGE
T1 construct: whole, on cells; On transfected COS7 cells, on GH3 cells, in solubilized GH3 membranes or in rat brain membranes, as the entry says; also called rat homologue of contactin; F3/F11
T1 sequence (looked up): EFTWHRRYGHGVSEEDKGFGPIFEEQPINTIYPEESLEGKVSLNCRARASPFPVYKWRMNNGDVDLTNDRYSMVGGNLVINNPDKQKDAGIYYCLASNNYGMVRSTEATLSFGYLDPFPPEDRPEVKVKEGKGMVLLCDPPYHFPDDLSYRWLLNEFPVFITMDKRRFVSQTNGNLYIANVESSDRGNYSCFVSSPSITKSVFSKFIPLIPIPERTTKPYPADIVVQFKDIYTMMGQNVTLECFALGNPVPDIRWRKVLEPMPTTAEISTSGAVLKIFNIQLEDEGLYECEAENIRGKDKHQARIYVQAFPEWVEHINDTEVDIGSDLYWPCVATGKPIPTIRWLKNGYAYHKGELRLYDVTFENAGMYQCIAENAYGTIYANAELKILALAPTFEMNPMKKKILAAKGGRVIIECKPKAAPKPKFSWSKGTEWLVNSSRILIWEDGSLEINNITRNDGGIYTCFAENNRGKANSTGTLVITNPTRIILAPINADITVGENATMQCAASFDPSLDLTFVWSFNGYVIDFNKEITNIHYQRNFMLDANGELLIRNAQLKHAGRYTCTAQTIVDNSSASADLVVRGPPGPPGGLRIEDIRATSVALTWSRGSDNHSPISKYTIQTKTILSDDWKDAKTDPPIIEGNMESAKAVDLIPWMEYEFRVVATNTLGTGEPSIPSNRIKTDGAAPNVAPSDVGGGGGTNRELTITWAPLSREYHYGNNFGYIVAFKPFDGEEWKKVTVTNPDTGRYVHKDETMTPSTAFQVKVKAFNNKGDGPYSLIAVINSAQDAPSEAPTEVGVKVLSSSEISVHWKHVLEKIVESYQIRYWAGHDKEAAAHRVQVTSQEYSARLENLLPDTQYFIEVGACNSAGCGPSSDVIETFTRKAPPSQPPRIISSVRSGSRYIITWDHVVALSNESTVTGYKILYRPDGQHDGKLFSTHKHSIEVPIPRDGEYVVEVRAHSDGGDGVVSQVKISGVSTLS
Description: (§1) Cells were incubated for four hours with medium containing, the different Fc-fusion proteins. Following three washes with cold PBS/Ca (1 mM CaCl₂ in PBS), the cells were incubated for additional 30 minutes with PBS/Ca containing 1 mM DTSSP (3,3′-Dithiobis[sulfosuccinimidyl--propionate], Pierce, Rockford, Ill.). Free cross-linker was removed by additional PBS wash followed by quenching with 100 mM glycine in TBS for 10 minutes at 4° C. Cell lysates were made in SBN lysis buffer (Peles et al., 1991, EMBO J., 10:2077-2086), and Sepharose-protein A was added to the cleared lysates. Following two hours incubation at 4° C., the beads were washed three times with HNTG buffer (Peles et al., 1991, EMBO J., 10:2077-2086), and the bound proteins were eluted by adding SDS PAGE sample buffer containing 5% β-mercaptoethanol and further incubation for 10 minutes at 95° C.
(§2) To characterize ligands for RPTPβ, a reversible cross-linker ([…]) was used, and proteins were sought that specifically bound to βC-Fc. Two of the cell lines that bound βC-Fc (IMR32 and GH3), as well as COS7 cells as a control, were allowed to react with the fusion proteins containing the FNIII or the CAH domains followed by cross-linking and precipitation of the complexes. […] No reactivity was detected in control cells or in cells incubated with βF-Fc. […]

[2] = biological target: T2, human contactin of IMR-32 neuroblastoma cells (140 kDa protein) (human, UniProt Q12860 21-993, GPI-anchored); experiment: cross-linking (DTSSP) on IMR-32 cells, protein A precipitation, SDS-PAGE
T2 construct: whole, on cells; also called p140
T2 sequence (looked up): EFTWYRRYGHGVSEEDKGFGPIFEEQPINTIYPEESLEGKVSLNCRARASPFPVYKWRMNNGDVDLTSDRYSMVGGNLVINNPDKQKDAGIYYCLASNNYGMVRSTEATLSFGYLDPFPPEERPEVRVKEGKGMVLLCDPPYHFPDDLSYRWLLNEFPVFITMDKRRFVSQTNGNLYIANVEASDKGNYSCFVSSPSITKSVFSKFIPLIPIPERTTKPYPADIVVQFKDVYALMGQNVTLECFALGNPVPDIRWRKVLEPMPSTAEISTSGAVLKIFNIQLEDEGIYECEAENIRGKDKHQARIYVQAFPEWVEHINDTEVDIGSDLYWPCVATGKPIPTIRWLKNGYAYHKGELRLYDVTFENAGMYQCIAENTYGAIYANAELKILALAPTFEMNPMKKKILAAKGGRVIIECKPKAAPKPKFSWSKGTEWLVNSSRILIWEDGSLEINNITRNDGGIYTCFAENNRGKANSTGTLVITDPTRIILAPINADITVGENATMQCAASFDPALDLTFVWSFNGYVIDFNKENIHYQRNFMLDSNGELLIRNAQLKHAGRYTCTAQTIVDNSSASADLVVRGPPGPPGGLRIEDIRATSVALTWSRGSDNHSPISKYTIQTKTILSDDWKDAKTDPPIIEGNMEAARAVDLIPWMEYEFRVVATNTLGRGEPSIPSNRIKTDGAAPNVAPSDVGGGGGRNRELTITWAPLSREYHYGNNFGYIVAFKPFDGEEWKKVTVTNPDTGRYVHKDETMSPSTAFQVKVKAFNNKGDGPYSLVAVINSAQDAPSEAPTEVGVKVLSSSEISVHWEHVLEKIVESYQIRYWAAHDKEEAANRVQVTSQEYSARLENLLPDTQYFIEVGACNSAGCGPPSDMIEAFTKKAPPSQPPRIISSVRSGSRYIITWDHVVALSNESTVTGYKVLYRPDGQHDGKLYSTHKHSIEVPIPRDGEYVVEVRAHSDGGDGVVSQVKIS
Description: as §1, §2

binding result [1]: no binding
binding result [2]: no binding
B1: βF-Fc (FNIII domain of RPTPβ fused to human IgG1-Fc) (Fc fusion)
chain: not shown
notes: domain: FNIII; also called the FNIII domain alone; fibronectin domain alone; not shown: human IgG1 Fc (vector pCNγ1)
